# Patent US20260209266A1
# Tests used:
# [1] = molecular target: Protein A (immobilized on a chromatography column) (UniProt P38507); assay: Protein A chromatography, linear pH gradient
# [2] = molecular target: Protein A (immobilized on a chromatography column) (UniProt P38507); assay: Protein A chromatography (rProtein A FF), step gradient, 20 mM sodium citrate, 1 M NaCl
elution pH from Protein A column [2] [pH],Substance,elution pH from Protein A column [1] [pH]
,IgG1 heterodimer having two IgG1 heavy chains identical but for an H435R/Y436F dipeptide modification in one CH3 domain (antibody),3.9
4.5,differentially modified heterodimeric human IgG2 Fc/ΔAdpFc (from UniProt P01859 99-219; P01859 99-219),
4,differentially modified heterodimeric human IgG4 (Fc/ΔAdpFc) (from UniProt P01861 99-220; P01861 99-220),
